For this series, the system named is Saccharomyces cerevisiae. Kind of series: transcriptional activation domain activity (GFP:mCherry ratio, weighted mean of sorted bins, harmonized to initial dataset scale) (arbitrary fluorescence ratio units); higher = stronger transcriptional activation. Conditions: beta-estradiol 1 µM; induction time 4 h. The method, boiled down:
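The listed activation activity is a read-weighted mean of bin median fluorescence, averaged across barcodes and linearly mapped onto the initial dataset scale. Barcoded tiles, fused to an estradiol-inducible synthetic transcription factor, were integrated at URA3 in yeast diploids bearing a GFP reporter. Cells were held 4 hours at 30 °C in SC with 1 uM beta-estradiol, sorted into 8 GFP:mCherry bins, and sequenced, and tiles with fewer than 50 reads were excluded.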

“MSLFMLRTLPSFVCSSFCAMLHFCCSYSLLFYYWALSLPRWLPIPSGFIPIAF”: the “transcriptional activation domain activity” value worked out at 60200.
As to “MSLFSILYFYYTICFICFLTFLTIKDLHIYLLLKFQITIFLFCYFFVCFLSPL”, the “transcriptional activation domain activity” value was 76600.
As for “MSLFSPCGETPLFLFPLFALTGLAPVLPPGSPLFFYLTLPLSFSFFHFFIFFF”, the “transcriptional activation domain activity” value came out at 79500.
With “MSLFSPSPSLSLYNFKIRFCILLVPLILAFLFLIILISYCLSLFICFSSSLWF” the figure was 54700; with “MSLGELAVLWVKRARHLGQSLLRVVLVSYAVDLPANCVALLRTGIRVLMLNMI”, 37300; with “MSLICIYQTIGTFAQICSWYFEMVHAGLSGSDIAQLARSNVNRIWWYKLLFTT”, 44500.
As to “MSLKEDDFGKDNSRNIESYTGRIFDVYIQKDSYSQSALDDMFPEAVVSTAACV”, the “transcriptional activation domain activity” value is 32700.
To “MSLKEKLSIIHMKIRHRIEMTILLLHIFSIPLCLSFFMLCCSFPFFWPFVILY” belongs 77600; to “MSLKRRAHRKSRNGCRECKRRRIKCDETKPHCGHCVRHGIHCVYPESAGASPA”, 43000; to “MSLLLCFRVLIFIYPLRVSFLVCSWLYILLFYMSLFHSSVICPHVKMNLFISL”, 43900.
With “MSLLMRVLCFCALGRPDLEDHWKSLQSEKAFEIVRTRVSSILDNIVTTAGVLL” the figure was 60400.
With “MSLLWIYFLSFFPFFCQNLTLLCFYAHIWTLRITPTFVLAFHLVYPLIIHLPV” the figure was 27100; with “MSLLYYMVQSTTTMLLLTPPLCFTFFFIFFLLIFLFFIFYFLFLFYFINRDQS”, 47600.
Turning to “MSLPGGFIFCCLFIFIFFAPFYSTFLRFFFPSCFYLFFYICCSFFFFFFFFPP”, the “transcriptional activation domain activity” value came to 38900.
To “MSLPIHRLLSYTCSIIYLLVHHLYFVFSFFIPVYFIQAQFFFAAFPFILFFIC” belongs 66900.
To “MSLRRSCLIFRWHVFMLLLMLFVRTWLVRLLVFLVFVVLMVRLLSLFPPFPLS” belongs 32200.
With “MSLSEWLRMIWVCFGRSTSCTIVRFSFHMRLIHVLIVVVLGTVRRHWLWSFVY” the figure was 35500; with “MSLSFFFFSFFFLFFIIIFGRSRWLCYDGFGFFFFSFFLLMLAVFLFLLTYFT”, 50800; with “MSLVLLLFCLYLRCYSVLAMANGVSVLNAADYPFSVMITKPVMCGGALISLDP”, 69000.
Take “MSLWISILHTTFLVGYHSIILSLSSPYHYCYLSFLFPIYPFLLGLFVFSLLSS”: the “transcriptional activation domain activity” value is 56600.
With “MSLYICNLVFSFFFFLFSFFLFLTLIFSSTRADCLWLLQERWYFVLLWNTLPF” the figure was 45800.
To “MSMFAMDFIIGHMVLFVLSPFTLVPYIDQLHSTMLFWLRPLLRLLRFYVHLYS” belongs 68200; to “MSMGIEFPFFTFRFSPSPLLLLLPFPPPFLPPFCLSAFFPSPLSPLPFPFLPS”, 51400; to “MSMLQVQWCYVMLYFDLSTSELLYFYLYLIFYSSFLFFNLWWLLNVDDASAPA”, 41500.
To “MSNGFFLGLWVLIKRPFFFFFFHLFVMHGVLGGCWDLLVGFVCLHRGFWFLFW” belongs 70700; to “MSNGSSFVQCIDTRLCLLYSLVFREHMAFHPIISSFLFLIRLLILLASLFLFF”, 48500; to “MSNLELMRFLTKPDVKLELSVKIDDIYWNCIFSLRYREMYTASLLRYMVFFLR”, 52700.
In the case of “MSNTYRFVMEEPAEAGKGQQKKRARLVTACDNCRNKKIKCLRTPVSGTCESCK”, the “transcriptional activation domain activity” value amounted to 27900.
To “MSNVQTELPFFPSCFVFFRGSFSFFCLVLFPLMAFIIELSILSFRCLFLLFLL” belongs 61300; to “MSNVYNCHPALLCYLALPCPTHLCLLSSLFPSVVSTVHAFLLLFLALCPISWI”, 71400.
To “MSNWLWIFLLLFFAFFCRSFTSCFIRLSVHIYTHCCMCSLGGLLVYLARSLFF” belongs 44200.
With “MSPLDQVAEDDLSKRRKPHTKSRHGCIDCRRRRVKCGEEKPCCRTCVRRGVRC”, the “transcriptional activation domain activity” value was found to be 44400.
Regarding “MSPLPSPLSFPLFLFFSLSLSNLVCMPHPLLSSLSLSTPPALFFLYLFFLATL”, the “transcriptional activation domain activity” value amounted to 55100.
To “MSPPCIVLKHLLFFLFSFHRILLQPVRRPSCFHISLYVLVVRLYWFRGILDFC” belongs 38300; to “MSPPEQSGGAPKHRACDECRARKLACSKEPDGCARCKRESQVCHYSAQKPMGR”, under 6570; to “MSPPTLREVNVSLPRKFDTPDEPWHRYVTIDLLHYVLGYTLFHPFVSCVLVLC”, 35200.
To “MSPRAFFPPWFDFVHAFLVYALVARRLRLLFLPTHLAMHCTHLSLSLTLLFLL” belongs 60500; to “MSPSGAVPSTAQVVPGACVNIVLKADQRTGRQVSGTVRDVLTRGDHHRGIKVR”, 41300.
To “MSPSSAVFFFFFFCIALFDSVWLVSFFMVLFFLFDSSLYSLLFFSCLFFFIHS” belongs 50000; to “MSQCLGTGYPIVCLVLICVRHGAMLDIREKAVEMIFTILLTSTVKVAKKLDKH”, 49500; to “MSQFDFGLLFGQPFFLCSLVLFGLGWFITFIATCTIGSSPHLIWVEIFYNLFL”, 58500.
As to “MSQSFLFCPFQCLSLYLFPFCLCFCFPTLAFLSRFSYFILVLFSFLPLLAFVA”, the “transcriptional activation domain activity” value is 18500.
As for “MSRCNSSMFMSMFDSLGLFLFVIFIFLFFELHSFWWDLFSLFFVFVWFNFSIS”, the “transcriptional activation domain activity” value was determined as 41400.
“MSRKIYCTPAFSTIHLLYLHNFFLIPIYYLQTSLRNILSKLSFCLILSILLLP”: the “transcriptional activation domain activity” value worked out at 52900.
For the sequence “MSRLSIYVALLLLESICICWRGWIAPRHVAMESVQINFKTGRFLVYFMFPIKA”, the “transcriptional activation domain activity” value stood at 32000.
To “MSRPSGCRSATSTGRATCSGCRRSSSPARPPCASRRARCSCGCVCASPTSTRR” belongs 12100; to “MSRQPVRAIFLYDILLFFLSGRSIDFVLIFSTWPFFFSFFLSFSLPPYFYFIL”, 71500; to “MSRVLPEKLPLHLQAACLPQRDLLTALPVVALRCYTDGPQLLRGLVCCLCDMW”, 61600.
To “MSRVRLAPEGHMFFFVLIVFIFCFFCLFLFLAGDLKGGWLFFLRFGMGWVFLG” belongs 21600; to “MSRVYNLFLKAFRYKLPSLYQHIHVILNLPPSMYLEAMFLTLFTLHCPIDVAS”, 53400.
To “MSSAASSTGSPRPKRRRRRPARSCEQCRRRKIRCDMGQPCNGCVRARVSMECS” belongs 38300; to “MSSDDDSAPRTKRGGKPTTKKQQKRAIARACDRCRQKKVKCDGASLAIGAVCQ”, 40600.
“MSSEKSSRASKTPTPTPAPPGDHRKRRRNRTTQSCLNCHASKRMCDRKRPACQ”: the “transcriptional activation domain activity” value came out at 52300.
For “MSSGFSWSTCSFFFFFFFFLLLLLLLFFWFFLFGLSWRDSLVFFPFFFFLSLF”, the “transcriptional activation domain activity” value is 17800.
Take “MSSHDGYRTRRTPQACVACRRRKTKCDGARPRCRHCASRHRQCVWPDVAEGAS”: the “transcriptional activation domain activity” value worked out at 39900.
With “MSSLFFLRSPCFYLYLYHYLVSFLIFMAFCLVCCLPLLFHFWVFCLLLCFRIY” the figure was 63600; with “MSSLFFSFQAVQFWFLGFLGLSWFRLVSTSYNIVDFLSFLSVHHHVLSWLGIP”, 63500.
With “MSSLPLFPVLSSSLCFPLPPSLPLSSPPSVSPFPPFSLFPPLPLFSPFPPSIS” the figure was 38900.
As for “MSSLYFFDLMISWLLCFLAFRGDLFYMVFFFLYHFFFLLCGFWFFFCTDIHFY”, the “transcriptional activation domain activity” value stood at 59900.
To “MSSMHKLVTIFTGQGRVLSFFSLCVLRGLYYYSLLLRYLYFTLLVFFLSLFPF” belongs 49100; to “MSSNFFGASNNAGQGSGTGASAPLFGAPKPADGGAAPAVGGLFGAKPAASGTG”, 27300; to “MSSNYENQAQQESDQGSSSKSQKSRHRASVACATCRERRIRCVVPAGEASCAQ”, 43100.
To “MSSPEVNSSQPASSPRKARRYGFACASCKARKVKCSGDQPVCRACRRANESCV” belongs 24300.
As to “MSSPKRITVLISGSGTNLQALMDAAGSSRLPNAQITHVISSRSAVKGLERAST”, the “transcriptional activation domain activity” value was 53800.
To “MSSPNEKMDVDRASPDRRSKSSRNHSTETHRTKRSHRSRSRGGERDKERRDRR” belongs 34300.
For “MSSPTSSLFFVSPPVGCYRYLLFFFFSSFWLLFVFLRSVPFGPTLLLFFFYFN”, the “transcriptional activation domain activity” value came to 42400.
In the case of “MSSSAASGPMGESSKRKAGSEAVAGSSSSSSISRDGKKAKLKPQDEATATGAA”, the “transcriptional activation domain activity” value worked out at 31400.
On to “MSSSDPLRKRDFEDSTRRLACDRCRGQKLRCERITGKTTSPCRRCVKARARCT”, for which the “transcriptional activation domain activity” value came to 35300.
With “MSSSEDEPRPRKARSKLSPPASPDSRAQSAPAVPSPVKLVRAKPRARAKAASL” the figure was 42700; with “MSSSEPLTEQTAALSVAEGDADGNVPIGPDGKPLSKSAIKKLQKEKEKAEKAA”, 39500.
With “MSSSLPSESPCQEPTKRRRKVKTGCRTCKIRRVKCDEGRPACHRCVSTGRVCD” the figure was 54000.
To “MSSSPTTGTSQDVQNRTVFTSRRRTAVACTNCRRRKLRCIPARVEEPATGPCA” belongs 35800.
With “MSSTKRPAEEEEPVIHEEDEPGKPDSAAAPAPKRRGRPPGSKNKKTIAAEAAA”, the “transcriptional activation domain activity” value amounted to 32700.
For the sequence “MSSTPNCARQQPNRSESARNRTKDNCAACREKRLKCDKDGGRKTCSSDSQPSS”, the “transcriptional activation domain activity” value amounted to 37400.

For the origin of these results see the supplement of paper PMC12636428.
